Results on eleven molecules are retold here after patent US20230414702A1 (INSERM INSTITUT NATIONAL DE LA SANT ET DE LA REC HERCHE M …, published 2023).

In assay [1] the target is T1, CD47 receptor (UniProt Q08722 19-323, limits assumed).
T1 construct: whole, on cells; The assays used a whole MEC-1 cell membrane preparation, not purified CD47; also called membrane preparation from MEC-1 cells
As to the kind of experiment: column Kd(µM)PR; binding to MEC-1 membrane preparation, method not named in Table 4.

Assay [2] addresses T1, CD47 receptor. As to the kind of experiment: microscale thermophoresis (MST), labeled MEC-1 membrane preparation. Here is the method:
(§1) For all experiments the concentration of the NT.115-labeled membrane was kept constant, while the concentrations of the ligand (peptide) was varied. After a short incubation time (5 min) the samples were loaded into MST premium glass capillaries and the MST analysis was performed using the Monolith NT.115.
(In general: Microscale thermophoresis detects binding through changes in fluorescence in a small temperature gradient.)

Assay [3] has as its target T1, CD47 receptor. Briefly: binding to MEC-1 membrane preparation; method not named in Table 3 (same value as the OR column of Table 2).
For assay [4], the target named is T1, CD47 receptor. Briefly: column Kd (OR); biolayer interferometry on Octet RED96, biotinylated MEC-1 membrane preparation on SSA biosensors. On the technique in general: Biolayer interferometry detects binding as a change in optical thickness at a sensor tip.
Assay [5] concerns the target T1, CD47 receptor. Briefly: binding to MEC-1 membrane preparation; method not named in Table 3.
In assay [6] the target is T1, CD47 receptor. As to the kind of experiment: apparent Kd, microscale thermophoresis (MST), Monolith NT.115, NT.115-labeled membrane. Here is the method: as §1
Assay [7] concerns the target T1, CD47 receptor. Briefly: apparent Kd, biolayer interferometry (BI) on Octet RED96, biotinylated MEC-1 membrane preparation on SSA biosensors. An excerpt: This system monitors interference of light reflected from two sources (an internal reflection surface and the liquid/solid interface of a fiber optic sensor) to measure the rate of binding of molecules to the biosensor surface. MEC-1 cells membrane preparation is biotinylated with the EZ-Link NHS-PEG4-Biotin kit from Thermo-Scientific and excess biotin is removed using desalting column from Thermo-Scientific. […] Typically, the biosensors were pre-equilibrated in PBS containing either biotinylated membranes or biocytine 100 μg/mL. Biosensors are then equilibrated in assay buffer for 10 min, brought to baseline in assay buffer for 60 sec. and transferred to wells containing peptide in dose-response (association for 120 sec. and dissociation for 300 sec.). The double reference with either membrane-loaded biosensors without any peptide dose-response or biocytine-loaded biosensors with each peptide dose-response were run in parallel for background signal double subtractions.

Non-standard residues stand in square brackets, D forms with d. No end group written: not given here. NMeR = CN[C@@H](CCCNC(=N)N)C(=O)O; Nle = CCCC[C@H](N)C(=O)O

T1 sequence (Q08722 19-323 limits assumed): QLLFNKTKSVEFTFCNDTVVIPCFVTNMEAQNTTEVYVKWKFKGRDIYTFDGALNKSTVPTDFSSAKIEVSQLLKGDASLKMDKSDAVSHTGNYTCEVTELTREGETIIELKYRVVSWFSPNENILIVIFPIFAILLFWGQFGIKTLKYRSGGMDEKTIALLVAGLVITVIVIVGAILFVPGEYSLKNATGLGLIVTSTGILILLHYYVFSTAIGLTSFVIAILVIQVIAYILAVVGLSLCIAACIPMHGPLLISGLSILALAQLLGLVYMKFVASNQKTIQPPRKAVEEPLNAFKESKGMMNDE

B1: PKT11, H-(D)K ψ(CONMe)R F Y V V M W K (D)K-OH (peptide)
peptide: KRFYVVMWKK
modifications: (D)-Lys at positions 1 and 10; N-methyl pseudopeptide bond ψ(CONMe) between (D)Lys1 and Arg2
The molecule B1 returned a Kd in the assay with CD47 receptor [1] of 21.7 µM.

B2: 4N1K (peptide)
peptide: KRFYVVMWKK
notes: Decapeptide that mimics the C-terminal domain of TSP-1
Consider B2, for which the Kd was 2.28 µM in the assay with CD47 receptor [2], 19 µM in the assay with CD47 receptor [3] and 19 µM with CD47 receptor [4].

B3: PKT17, H-(D)K ψ(CONMe)R F Y V V L W K (D)K-OH (peptide)
peptide: H-[dK][NMeR]FYVVLWK[dK]-OH
SMILES: CC(C)C[C@H](NC(=O)[C@@H](NC(=O)[C@@H](NC(=O)[C@H](Cc1ccc(O)cc1)NC(=O)[C@H](Cc1ccccc1)NC(=O)[C@H](CCCNC(=N)N)N(C)C(=O)[C@H](N)CCCCN)C(C)C)C(C)C)C(=O)N[C@@H](Cc1c[nH]c2ccccc12)C(=O)N[C@@H](CCCCN)C(=O)N[C@H](CCCCN)C(=O)O
In the assay with CD47 receptor [1], B3 gave a Kd of 12 µM.

B4: R2/A, k(A)FYVVMWKk (peptide)
peptide: H-[dK]AFYVVMWK[dK]-OH
SMILES: CSCC[C@H](NC(=O)[C@@H](NC(=O)[C@@H](NC(=O)[C@H](Cc1ccc(O)cc1)NC(=O)[C@H](Cc1ccccc1)NC(=O)[C@H](C)NC(=O)[C@H](N)CCCCN)C(C)C)C(C)C)C(=O)N[C@@H](Cc1c[nH]c2ccccc12)C(=O)N[C@@H](CCCCN)C(=O)N[C@H](CCCCN)C(=O)O
notes: Ala-scan analogue of PKHB1
B4 gave a Kd with CD47 receptor [5] of 6.2 µM.

B5: K9/A, kRFYVVMW(A)k (peptide)
peptide: H-[dK]RFYVVMWA[dK]-OH
SMILES: CSCC[C@H](NC(=O)[C@@H](NC(=O)[C@@H](NC(=O)[C@H](Cc1ccc(O)cc1)NC(=O)[C@H](Cc1ccccc1)NC(=O)[C@H](CCCNC(=N)N)NC(=O)[C@H](N)CCCCN)C(C)C)C(C)C)C(=O)N[C@@H](Cc1c[nH]c2ccccc12)C(=O)N[C@@H](C)C(=O)N[C@H](CCCCN)C(=O)O
notes: Ala-scan analogue of PKHB1
With B5, the Kd with CD47 receptor [5] was determined as 27 µM.

B6: M7/A, kRFYVV(A)WKk (peptide)
peptide: [dK]RFYVVAWK[dK]
notes: Ala-scan analogue of PKHB1
Molecule B6 had a Kd with CD47 receptor [5] of 42 µM.

B7: PKHB1, H-(D)K R F Y V V M W K (D)K-OH (peptide)
peptide: KRFYVVMWKK
modifications: (D)-Lys at position 1 and (D)-Lys at position 10
notes: also called 4(PKHB1)
Take B7: the Kd with CD47 receptor [2] turned out to be 3.04 µM; with CD47 receptor [1], 22.6 µM; in the assay with CD47 receptor [3], 43 µM; with CD47 receptor [4], 43 µM.

B8: peptide 2, Ac-KRFYVVMWKK-NH2 (peptide)
peptide: Ac-KRFYVVMWKK-NH2
On to B8, for which the Kd with CD47 receptor [2] stood at 1.2 µM; with CD47 receptor [4], 40 µM.

B9: PKT15, H-(D)K ψ(CONMe)R F Y V V M W ψ(CONMe)K (D)K-OH (peptide)
peptide: KRFYVVMWKK
modifications: (D)-Lys at positions 1 and 10; N-methyl pseudopeptide bonds ψ(CONMe) between (D)Lys1 and Arg2 and between Trp8 and Lys9
In the assay with CD47 receptor [1], B9 showed a Kd of 16 µM.

B10: M/Nle, kRFYVV(Nle)WKk (peptide)
peptide: H-[dK]RFYVV[Nle]WK[dK]-OH
SMILES: CCCC[C@H](NC(=O)[C@@H](NC(=O)[C@@H](NC(=O)[C@H](Cc1ccc(O)cc1)NC(=O)[C@H](Cc1ccccc1)NC(=O)[C@H](CCCNC(=N)N)NC(=O)[C@H](N)CCCCN)C(C)C)C(C)C)C(=O)N[C@@H](Cc1c[nH]c2ccccc12)C(=O)N[C@@H](CCCCN)C(=O)N[C@H](CCCCN)C(=O)O
B10: the Kd with CD47 receptor [5] is 18 µM.

B11: PKT16, H-(D)K ψ(CONMe)R F Y V V X W K (D)K-OH (peptide)
peptide: H-[dK][NMeR]FYVV[Nle]WK[dK]-OH
Regarding B11, the Kd with CD47 receptor [1] was found to be 12.1 µM; in the assay with CD47 receptor [6] it was 1.6 µM; with CD47 receptor [7], 7.4 µM.
